Measurements: patent US20050171026

Biological target: Recombinant His-tagged SF2/ASF (rSF2/ASF) (UniProt Q07955)
Sequence (Q07955 whole entry): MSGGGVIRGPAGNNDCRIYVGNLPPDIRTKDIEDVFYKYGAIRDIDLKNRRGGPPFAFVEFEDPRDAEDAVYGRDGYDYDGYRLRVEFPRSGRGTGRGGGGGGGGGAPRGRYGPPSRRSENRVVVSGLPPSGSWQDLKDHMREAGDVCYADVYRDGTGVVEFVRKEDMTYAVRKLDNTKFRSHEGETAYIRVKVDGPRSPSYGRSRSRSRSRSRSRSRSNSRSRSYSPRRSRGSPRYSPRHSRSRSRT

Glutathione S-transferase-tagged mClk1/Sty (recombinant Clk1/Sty), sequence (chain, as listed by the source): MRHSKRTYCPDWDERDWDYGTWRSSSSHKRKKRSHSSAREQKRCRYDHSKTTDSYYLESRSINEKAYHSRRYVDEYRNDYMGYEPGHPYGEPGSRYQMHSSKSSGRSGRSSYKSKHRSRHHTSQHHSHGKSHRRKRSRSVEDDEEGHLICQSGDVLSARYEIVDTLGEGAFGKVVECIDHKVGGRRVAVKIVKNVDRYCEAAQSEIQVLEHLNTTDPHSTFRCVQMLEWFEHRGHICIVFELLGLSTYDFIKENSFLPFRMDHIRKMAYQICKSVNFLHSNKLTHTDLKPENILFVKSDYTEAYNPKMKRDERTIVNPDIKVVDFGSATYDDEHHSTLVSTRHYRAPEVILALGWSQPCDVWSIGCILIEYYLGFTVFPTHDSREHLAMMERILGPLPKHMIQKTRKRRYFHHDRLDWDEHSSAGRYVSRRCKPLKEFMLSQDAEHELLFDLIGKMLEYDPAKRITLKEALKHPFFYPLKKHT

Glutathione S-transferase-tagged mClk1/Sty (recombinant Clk1/Sty)
electrophoretic mobility of rSF2/ASF on SDS-PAGE / Western blot with AK103 (phosphorylation state): rSF2/ASF exhibited reduced electrophoretic mobility in the presence of Clk 1/Sty (FIG. 2A, lane 2) compared with the rSF2/ASF alone
